{"source": "paper PMC4973843", "about": "“Dimeric chlorite dismutase from the nitrogen‐fixing cyanobacterium C yanothece sp. PCC7425” (Molecular Microbiology, 2015)", "substrate": "[O-][Cl+]O", "test": "Clark-type oxygen electrode, O2 release", "format": "biochemical, Cyanothece sp. PCC 7425", "conditions": "50 mM citrate phosphate pH 5.0, 30°C"}
{"protein": "CCld (chlorite dismutase from Cyanothece sp. PCC7425) (Cyanothece sp. PCC 7425) (protein, heme b) NNRYSFIGGRTGQWQVVKIRNVLGPGLQLVEKVNILNGAVAEIPLDSAWRLQGFASNIRYAIRTELEALQAVQPMLNRAEAILAVLIPIKKSAQWWEMAQDERRDIFERESHHTAVGLEYLPGVARRLLHCRDLGEEFDFLTWFEFAPEHSSAFNELLLRMRASKEWEYVEREVEVWLKRL", "values": [{"measurement": "Km", "value": "162 ± 10.0", "unit": "µM"}, {"measurement": "kcat", "value": "1144 ± 23.8", "unit": "s⁻¹"}]}
